In patent publication US20240287138A1 (Merck Sharp & Dohme, published 2024):
Bridge positions count the residues as written; N and C are the ends. Square brackets hold non-standard residues; d marks the D form. Primed or numbered codes have the meaning given here. Trp(βS-Me,7-OMe) = COc1cccc2c([C@H](C)[C@H](N)C(=O)O)c[nH]c12; Phe(2-F,4-COOH) = N[C@@H](Cc1ccc(C(=O)O)cc1F)C(=O)O; Trp(7-CN) = N#Cc1cccc2c(C[C@H](N)C(=O)O)c[nH]c12; Trp(7-Cl) = N[C@@H](Cc1c[nH]c2c(Cl)cccc12)C(=O)O; Phe(3-COOH) = N[C@@H](Cc1cccc(C(=O)O)c1)C(=O)O; Phe(4-CONH2) = NC(=O)c1ccc(C[C@H](N)C(=O)O)cc1; Phe(4-COOH) = N[C@@H](Cc1ccc(C(=O)O)cc1)C(=O)O; Trp(7-aza) = N[C@@H](Cc1c[nH]c2ncccc12)C(=O)O; Phe(4-CH2NH2) = NCc1ccc(C[C@H](N)C(=O)O)cc1; 3Pal = N[C@@H](Cc1cccnc1)C(=O)O; 4Pal = N[C@@H](Cc1ccncc1)C(=O)O; NMeE = CN[C@@H](CCC(=O)O)C(=O)O; dHyp = O=C(O)[C@H]1C[C@H](O)CN1; dNMeE = CN[C@H](CCC(=O)O)C(=O)O; d(αMeP) = C[C@]1(C(=O)O)CCCN1; Phe4AcPip = not defined here; Pipt5OH = not defined here; αMeS = C[C@](N)(CO)C(=O)O; Nle = CCCC[C@H](N)C(=O)O; Pip2c = not defined here; TZAla = not defined here; cAcBu = not defined here; Ahp′ = not defined here; Pip′ = not defined here; MO2 = not defined here; Qdm = not defined here; Sar = CNCC(=O)O

B1: SEQ ID NO. 28 (peptide)
peptide: cyclo([bhcLeu][Nle][4Pal][Pip2c]W[NMeE]N[4Pal][Trp(7-Cl)][αMeS][Phe(3-COOH)]Y[Sar][Trp(βS-Me,7-OMe)])
modifications: reading uncertain; also: printed as cyclo(bhcLeu-Nle-4Pal-Pip2c-W-NMeE-N-4Pal-Trp7Cl-aMeS-Phe3COOH-Y-Sar-SbMeW7OMe)
B2: SEQ ID NO. 76 (peptide)
peptide: {CH2CO}-[Nle][4Pal][Pip2c]W[d(αMeP)]N[4Pal][Trp(7-Cl)][αMeS][Phe(4-COOH)]Y[Sar][Trp(βS-Me,7-OMe)]C-NH2
modifications: thioether N-14 (inferred); reading uncertain; also: printed as cyclo(ClAc-Nle-4Pal-Pip2c-W-daMeP-N-4Pal-Trp7Cl-aMeS-Phe4COOH-Y-Sar-SbMeW7OMe-C)-NH2
B3: SEQ ID NO. 137 (peptide)
peptide: cyclo([bhcLeu][hL][4Pal][Pip2c]W[NMeE]N[4Pal][Trp(7-Cl)][αMeS][Phe(4-COOH)]Y[Sar][Trp(βS-Me,7-OMe)])
modifications: reading uncertain; also: printed as cyclo(bhcLeu-hL-4Pal-Pip2c-W-NMeE-N-4Pal-Trp7Cl-aMeS-Phe4COOH-Y-Sar-SbMeW7OMe)
B4: SEQ ID NO. 40 (peptide)
peptide: cyclo([bhcLeu][Nle][3Pal][Pip2c]W[NMeE]N[4Pal][Trp(7-Cl)][αMeS][Phe(4-COOH)]Y[Sar][Trp(βS-Me,7-OMe)])
modifications: reading uncertain; also: printed as cyclo(bhcLeu-Nle-3Pal-Pip2c-W-NMeE-N-4Pal-Trp7Cl-aMeS-Phe4COOH-Y-Sar-SbMeW7OMe)
B5: SEQ ID NO. 55 (peptide)
peptide: cyclo([bhcLeu][Ahp′][SbMe4Pal]DW[dHyp]N[Phe(4-COOH)][Trp(7-CN)][αMeS][Phe(4-CONH2)][Phe(4-CONH2)][Sar][Trp(βS-Me,7-OMe)])
modifications: reading uncertain; also: printed as cyclo(bhcLeu-Ahp-SbMe4Pal-D-W-dProt4OH-N-Phe4COOH-Trp7CN-aMeS-Phe4CONH2-Phe4CONH2-Sar-SbMeW7OMe)
B6: SEQ ID NO. 142 (peptide)
peptide: cyclo([bhcLeu][SerOEt][4Pal][Pipt5OH]W[dHyp]N[4Pal][Trp(7-Cl)][αMeS][Phe(4-CONH2)][Phe(4-COOH)][Sar][Trp(βS-Me,7-OMe)])
modifications: reading uncertain; also: printed as cyclo(bhcLeu-SerOEt-4Pal-Pipt5OH-W-dProt4OH-N-4Pal-Trp7Cl-aMeS-Phe4CONH2-Phe4COOH-Sar-SbMeW7OMe)
B7: SEQ ID NO. 63 (peptide)
peptide: cyclo([bhcLeu][Nle][4Pal][Pip2c]W[NMeE]N[4Pal][Trp(7-Cl)][αMeS][Phe(4-COOH)][Phe4AcPip][Sar][Trp(βS-Me,7-OMe)])
modifications: reading uncertain; also: printed as cyclo(bhcLeu-Nle-4Pal-Pip2c-W-NMeE-N-4Pal-Trp7Cl-aMeS-Phe4COOH-Phe4AcPip-Sar-SbMeW7OMe)
B8: SEQ ID NO. 138 (peptide)
peptide: cyclo([bhcLeu][Nle][4Pal][Pip2c]W[NMeE]N[TZAla][Trp(7-Cl)][αMeS][Phe(4-COOH)]Y[Sar][Trp(βS-Me,7-OMe)])
modifications: reading uncertain; also: printed as cyclo(bhcLeu-Nle-4Pal-Pip2c-W-NMeE-N-TZAla-Trp7Cl-aMeS-Phe4COOH-Y-Sar-SbMeW7OMe)
B9: SEQ ID NO. 64 (peptide)
peptide: cyclo([bhcLeu][Nle][4Pal][Pip2c]W[NMeE][MO2][4Pal][Trp(7-Cl)][αMeS][Phe(4-COOH)]Y[Sar][Trp(βS-Me,7-OMe)])
modifications: reading uncertain; also: printed as cyclo(bhcLeu-Nle-4Pal-Pip2c-W-NMeE-MO2-4Pal-Trp7Cl-aMeS-Phe4COOH-Y-Sar-SbMeW7OMe)
B10: SEQ ID NO. 69 (peptide)
peptide: cyclo([cAcBu][Nle][4Pal][Pip2c]W[NMeE]N[4Pal][Trp(7-Cl)][αMeS][Phe(4-COOH)]Y[Sar][Trp(βS-Me,7-OMe)])
modifications: reading uncertain; also: printed as cyclo(cAcBu-Nle-4Pal-Pip2c-W-NMeE-N-4Pal-Trp7Cl-aMeS-Phe4COOH-Y-Sar-SbMeW7OMe)
B11: SEQ ID NO. 7 (peptide)
peptide: cyclo([bhcLeu][Nle][4Pal][Pip2c]W[NMeE]N[4Pal][Trp(7-Cl)][αMeS][Phe(2-F,4-COOH)]Y[Sar][Trp(βS-Me,7-OMe)])
modifications: reading uncertain; also: printed as cyclo(bhcLeu-Nle-4Pal-Pip2c-W-NMeE-N-4Pal-Trp7Cl-aMeS-Phe2F4COOH-Y-Sar-SbMeW7OMe)
B12: SEQ ID NO. 25 (peptide)
peptide: cyclo([bhcLeu][Nle][4Pal][Pipt5OH]W[dHyp][SbOHAsn][4Pal][Trp(7-CN)][αMeS][Phe(4-CONH2)][Phe(4-COOH)][Sar][Trp(βS-Me,7-OMe)])
modifications: reading uncertain; also: printed as cyclo(bhcLeu-Nle-4Pal-Pipt5OH-W-dProt4OH-SbOHAsn-4Pal-Trp7CN-aMeS-Phe4CONH2-Phe4COOH-Sar-SbMeW7OMe)
B13: SEQ ID NO. 75 (peptide)
peptide: {CH2CO}-[Nle][4Pal][Pip2c]W[NMeE][Qdm][4Pal][Trp(7-Cl)][αMeS][Phe(4-COOH)]Y[Sar][Trp(βS-Me,7-OMe)]C-NH2
modifications: thioether N-14 (inferred); reading uncertain; also: printed as cyclo(ClAc-Nle-4Pal-Pip2c-W-NMeE-Qdm-4Pal-Trp7Cl-aMeS-Phe4COOH-Y-Sar-SbMeW7OMe-C)-NH2
B14: SEQ ID NO. 65 (peptide)
peptide: {CH2CO}-[Nle][PyrimAla][Pip2c][Trp(7-aza)][NMeE]N[4Pal][Trp(7-Cl)][αMeS][Phe(4-COOH)]Y[Sar][Trp(βS-Me,7-OMe)]C-NH2
modifications: thioether N-14; reading uncertain; also: printed as cyclo(ClAc-Nle-PyrimAla-Pip2c-Trp7az-NMeE-N-4Pal-Trp7Cl-aMeS-Phe4COOH-Y-Sar-SbMeW7OMe-C)-NH2
B15: SEQ ID NO. 126 (peptide)
peptide: cyclo([bhcLeu][Nle][4Pal][Pipt5OH]W[NMeE]N[4Pal][Trp(7-Cl)][αMeS][Phe(4-CONH2)][TyrOcm][Sar][Trp(βS-Me,7-OMe)])
modifications: reading uncertain; also: printed as cyclo(bhcLeu-Nle-4Pal-Pipt5OH-W-NMeE-N-4Pal-Trp7Cl-aMeS-Phe4CONH2-TyrOcm-Sar-SbMeW7OMe)
B16: SEQ ID NO. 52 (peptide)
peptide: {CH2CO}-[Nle][4Pal][Pip2c][TrpCH2COOH][NMeE]N[Phe(4-COOH)][Trp(7-Cl)][αMeS][Phe(4-CONH2)]Y[Sar][Trp(βS-Me,7-OMe)]C-NH2
modifications: thioether N-14; reading uncertain; also: printed as cyclo(ClAc-Nle-4Pal-Pip2c-TrpCH2COOH-NMeE-N-Phe4COOH-Trp7Cl-aMeS-Phe4CONH2-Y-Sar-SbMeW7OMe-C)-NH2
B17: SEQ ID NO. 24 (peptide)
peptide: cyclo([bhcLeu][Nle][4Pal][Pip2c]W[NMeE]N[4Pal][Trp(7-Cl)][αMeS][Phe(4-COOH)][Tyr3OMe][Sar][Trp(βS-Me,7-OMe)])
modifications: reading uncertain; also: printed as cyclo(bhcLeu-Nle-4Pal-Pip2c-W-NMeE-N-4Pal-Trp7Cl-aMeS-Phe4COOH-Tyr3OMe-Sar-SbMeW7OMe)

target: T1, TNFR1 on THP-1 Lucia NF-kB reporter cells (UniProt P19438 30-455, limits assumed); assay: cell-based or functional assay
T1 sequence (looked up): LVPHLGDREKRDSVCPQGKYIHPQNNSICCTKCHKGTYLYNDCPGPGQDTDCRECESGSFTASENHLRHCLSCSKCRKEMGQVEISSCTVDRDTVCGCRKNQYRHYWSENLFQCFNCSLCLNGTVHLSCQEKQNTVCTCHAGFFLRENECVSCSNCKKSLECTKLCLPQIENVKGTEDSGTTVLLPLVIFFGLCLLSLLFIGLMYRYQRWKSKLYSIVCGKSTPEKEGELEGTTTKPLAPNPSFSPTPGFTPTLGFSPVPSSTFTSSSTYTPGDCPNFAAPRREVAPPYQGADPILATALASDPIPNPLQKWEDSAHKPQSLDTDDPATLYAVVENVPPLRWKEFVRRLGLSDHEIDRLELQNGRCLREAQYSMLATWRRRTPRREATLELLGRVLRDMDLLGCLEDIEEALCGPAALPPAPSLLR

| Binder | THP-1 IC50 [nM] |
| --- | --- |
| B1 | 1.6 |
| B2 | 4.7 |
| B3 | 1.3 |
| B4 | 1.5 |
| cyclo([bhcLeu][Nle][4Pal][Pipt5OH][Trp(7-aza)][dNMeE]N[F4SO2NH2][Trp(7-CN)][αMeS][Phe(4-CONH2)][Phe(4-COOH)][Sar][Trp(βS-Me,7-OMe)]) (reading uncertain) [SEQ ID NO. 133] | 1.4 |
| B5 | 1.3 |
| B6 | 1.1 |
| B7 | 1.2 |
| B8 | 2 |
| B9 | 1.1 |
| B10 | 1.6 |
| B11 | 1.6 |
| cyclo([bhcLeu][LysMe3][4Pal][Pip′]W[NMeE]N[4Pal][Trp(7-Cl)][αMeS][Phe(4-COOH)]Y[Sar][Trp(βS-Me,7-OMe)]) [SEQ ID NO. 47] | 1.9 |
| B12 | 0.8 |
| B13 | 6.1 |
| B14 | 4 |
| B15 | 0.8 |
| {CH2CO}-[Nle][4Pal][Pipc4OH]W[NMeE]N[4Pal][Trp(7-Cl)][αMeS][Phe(4-COOH)]Y[Sar][Trp(βS-Me,7-OMe)]C-NH2 (thioether N-14 (inferred)) [SEQ ID NO. 71] | 2.8 |
| B16 | 3.9 |
| B17 | 0.7 |
| {CH2CO}-[Nle][4Pal][Pip′][Trp(7-aza)][NMeE]N[Phe(4-CH2NH2)][Trp(7-Cl)][αMeS][Phe(4-CH2NH2)]Y[Sar][Trp(βS-Me,7-OMe)]C-NH2 (thioether N-14) [SEQ ID NO. 58] | 16.2 |
